The record followed here is publication PMC9464592 (Nature, 2022).

Test [1] has as its target T1, tag-free WDR59 (human, UniProt Q6PJI9 1-974).
T1 sequence: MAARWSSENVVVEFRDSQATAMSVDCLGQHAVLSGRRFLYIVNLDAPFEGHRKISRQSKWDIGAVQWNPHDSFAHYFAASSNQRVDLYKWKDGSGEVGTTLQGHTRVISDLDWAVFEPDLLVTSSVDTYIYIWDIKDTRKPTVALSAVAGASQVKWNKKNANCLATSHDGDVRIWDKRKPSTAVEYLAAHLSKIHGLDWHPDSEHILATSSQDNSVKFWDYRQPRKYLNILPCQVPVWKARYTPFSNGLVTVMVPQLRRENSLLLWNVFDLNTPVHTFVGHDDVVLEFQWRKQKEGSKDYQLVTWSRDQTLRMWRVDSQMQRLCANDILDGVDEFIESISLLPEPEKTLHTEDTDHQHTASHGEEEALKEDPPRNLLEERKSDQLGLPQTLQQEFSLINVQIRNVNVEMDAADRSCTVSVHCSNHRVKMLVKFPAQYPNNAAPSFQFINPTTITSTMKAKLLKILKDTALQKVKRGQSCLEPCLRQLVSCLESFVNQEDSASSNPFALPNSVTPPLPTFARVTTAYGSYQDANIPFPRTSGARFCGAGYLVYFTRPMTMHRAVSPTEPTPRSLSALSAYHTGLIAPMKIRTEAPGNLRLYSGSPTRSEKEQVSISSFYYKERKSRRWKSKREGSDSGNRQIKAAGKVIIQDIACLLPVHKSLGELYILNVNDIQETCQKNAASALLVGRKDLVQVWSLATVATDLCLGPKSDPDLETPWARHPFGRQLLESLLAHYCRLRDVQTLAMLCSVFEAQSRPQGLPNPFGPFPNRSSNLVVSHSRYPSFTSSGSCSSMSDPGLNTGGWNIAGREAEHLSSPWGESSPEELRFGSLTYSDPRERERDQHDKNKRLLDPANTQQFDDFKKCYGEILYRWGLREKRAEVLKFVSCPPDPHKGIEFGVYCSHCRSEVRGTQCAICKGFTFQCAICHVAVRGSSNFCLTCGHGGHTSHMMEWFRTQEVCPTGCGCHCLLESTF
Nature of the test: SEC. (In general: Size exclusion chromatography separates by hydrodynamic size, large species first.)

The target of test [2] is T1, tag-free WDR59. Kind of test: cryo-EM structure.

B1: WDR24 ∆CTD (domain or fragment, human, UniProt Q96S15 1-700, looked up)
chain: MEKMSRVTTALGGSVLTGRTMHCHLDAPANAISVCRDAAQVVVAGRSIFKIYAIEEEQFVEKLNLRVGRKPSLNLSCADVVWHQMDENLLATAATNGVVVTWNLGRPSRNKQDQLFTEHKRTVNKVCFHPTEAHVLLSGSQDGFMKCFDLRRKDSVSTFSGQSESVRDVQFSIRDYFTFASTFENGNVQLWDIRRPDRCERMFTAHNGPVFCCDWHPEDRGWLATGGRDKMVKVWDMTTHRAKEMHCVQTIASVARVKWRPECRHHLATCSMMVDHNIYVWDVRRPFVPAAMFEEHRDVTTGIAWRHPHDPSFLLSGSKDSSLCQHLFRDASQPVERANPEGLCYGLFGDLAFAAKESLVAAESGRKPYTGDRRHPIFFKRKLDPAEPFAGLASSALSVFETEPGGGGMRWFVDTAERYALAGRPLAELCDHNAKVARELGRNQVAQTWTMLRIIYCSPGLVPTANLNHSVGKGGSCGLPLMNSFNLKDMAPGLGSETRLDRSKGDARSDTVLLDSSATLITNEDNEETEGSDVPADYLLGDVEGEEDELYLLDPEHAHPEDPECVLPQEAFPLRHEIVDTPPGPEHLQDKADSPHVSGSEADVASLAPVDSSFSLLSVSHALYDSRLPPDFFGVLVRDMLHFYAEQGDVQMAVSVLIVLGERVRKDIDEQTQEHWYTSYIDLLQRFRLWNVSNEVVKLS
Turning to B1, the binding result with tag-free WDR59 [1] is reported as “binds”.

B2: MIOS A560E (natural protein, human)
chain: MSGTKPDILWAPHHVDRFVVCDSELSLYHVESTVNSELKAGSLRLSEDSAATLLSINSDTPYMKCVAWYLNYDPECLLAVGQANGRVVLTSLGQDHNSKFKDLIGKEFVPKHARQCNTLAWNPLDSNWLAAGLDKHRADFSVLIWDICSKYTPDIVPMEKVKLSAGETETTLLVTKPLYELGQNDACLSLCWLPRDQKLLLAGMHRNLAIFDLRNTSQKMFVNTKAVQGVTVDPYFHDRVASFYEGQVAIWDLRKFEKPVLTLTEQPKPLTKVAWCPTRTGLLATLTRDSNIIRLYDMQHTPTPIGDETEPTIIERSVQPCDNYIASFAWHPTSQNRMIVVTPNRTMSDFTVFERISLAWSPITSLMWACGRHLYECTEEENDNSLEKDIATKMRLRALSRYGLDTEQVWRNHILAGNEDPQLKSLWYTLHFMKQYTEDMDQKSPGNKGSLVYAGIKSIVKSSLGMVESSRHNWSGLDKQSDIQNLNEERILALQLCGWIKKGTDVDVGPFLNSLVQEGEWERAAAVALFNLDIRRAIQILNEGASSEKGDLNLNVVAMELSGYTDEKNSLWREMCSTLRLQLNNPYLCVMFAFLTSETGSYDGVLYENKVAVRDRVAFACKFLSDTQLNRYIEKLTNEMKEAGNLEGILLTGLTKDGVDLMESYVDRTGDVQTASYCMLQGSPLDVLKDERVQYWIENYRNLLDAWRFWHKRAEFDIHRSKLDPSSKPLAQVFVSCNFCGKSISYSCSAVPHQGRGFSQYGVSGSPTKSKVTSCPGCRKPLPRCALCLINMGTPVSSCPGGTKSDEKVDLSKDKKLAQFNNWFTWCHNCRHGGHAGHMLSWFRDHAECPVSACTCKCMQLDTTGNLVPAETVQP
For the molecule B2, the binding result with tag-free WDR59 [1] was “binds”.

B3: N-terminally Flag-tagged MIOS (natural protein, human)
chain: MSGTKPDILWAPHHVDRFVVCDSELSLYHVESTVNSELKAGSLRLSEDSAATLLSINSDTPYMKCVAWYLNYDPECLLAVGQANGRVVLTSLGQDHNSKFKDLIGKEFVPKHARQCNTLAWNPLDSNWLAAGLDKHRADFSVLIWDICSKYTPDIVPMEKVKLSAGETETTLLVTKPLYELGQNDACLSLCWLPRDQKLLLAGMHRNLAIFDLRNTSQKMFVNTKAVQGVTVDPYFHDRVASFYEGQVAIWDLRKFEKPVLTLTEQPKPLTKVAWCPTRTGLLATLTRDSNIIRLYDMQHTPTPIGDETEPTIIERSVQPCDNYIASFAWHPTSQNRMIVVTPNRTMSDFTVFERISLAWSPITSLMWACGRHLYECTEEENDNSLEKDIATKMRLRALSRYGLDTEQVWRNHILAGNEDPQLKSLWYTLHFMKQYTEDMDQKSPGNKGSLVYAGIKSIVKSSLGMVESSRHNWSGLDKQSDIQNLNEERILALQLCGWIKKGTDVDVGPFLNSLVQEGEWERAAAVALFNLDIRRAIQILNEGASSEKGDLNLNVVAMALSGYTDEKNSLWREMCSTLRLQLNNPYLCVMFAFLTSETGSYDGVLYENKVAVRDRVAFACKFLSDTQLNRYIEKLTNEMKEAGNLEGILLTGLTKDGVDLMESYVDRTGDVQTASYCMLQGSPLDVLKDERVQYWIENYRNLLDAWRFWHKRAEFDIHRSKLDPSSKPLAQVFVSCNFCGKSISYSCSAVPHQGRGFSQYGVSGSPTKSKVTSCPGCRKPLPRCALCLINMGTPVSSCPGGTKSDEKVDLSKDKKLAQFNNWFTWCHNCRHGGHAGHMLSWFRDHAECPVSACTCKCMQLDTTGNLVPAETVQP
B3: in the test with tag-free WDR59 [2], the binding result is reported as “binds”.
